Data on 2 molecules can be found in US20040063641A1, “Use of growth hormone or a growth hormone secretagogue for promoting bone formation” (priority 1996, published 2004).

Test [1] deals with distracted tibia (bone regenerate). As to the kind of experiment: Mechanical torsion testing of distracted tibia after callus distraction in mini-pigs. Format: in vivo, Yucatan mini-pigs. The following applies: r-pGH 100 μg/kg daily injection. The protocol: After sacrifice, the right and left limb were dissected. The soft tissue around the joints was removed, and the ends of the tibia were casted in Beracryl. The constructs were placed in a materials testing machine (Zwick, Ulm, Germany), and torsional moments were applied. Resulting displacements and torsional moments were recorded. The test was conducted with a speed of 30° per minute until failure. The system automatically terminated the test at a torque of […]. The final bone torsional strength of a mini-pig group treated with growth hormone was investigated relative to a control group. 30 mature female Yucatan mini-pigs were equally distributed into two treatment groups. Mini-pigs in the study group received a daily injection of recombinant porcine growth hormone (r-pGH: 100 μg/kg), the mini-pigs in the control group received sodium chloride as placebo. The left tibiae and fibulae were osteotomized and stabilized with an external fixator. Full weight bearing was permitted. The legs were distracted twice daily at 2 mm/day for 10 days and then allowed to consolidate for 10 days. After sacrifice, torsional moments were applied to the distracted and the contralateral tibia in a material testing machine and the maximum torsional moment was determined. Four animals were removed from the study due to bone infection or surgery failure and data of 2 animals were lost due to test machine failure. A t-test was used to determine differences in maximum torsional moments between the treatment groups.

Another test concerns healing fracture. The following applies: dogs treated with cST; no distraction; cited from earlier work.

B1: GH: recombinant porcine growth hormone (r-pGH), homologous GH given by daily injection to mini-pigs (protein, UniProt P01248 27-216, looked up)
Somatotropin: FPAMPLSSLFANAVLRAQHLHQLAADTYKEFERAYIPEGQRYSIQNAQAAFCFSETIPAPTGKDEAQQRSDVELLRFSLLLIQSWLGPVQFLSRVFTNSLVFGTSDRVYEKLKDLEEGIQALMRELEDGSPRAGQILKQTYDKFDTNLRSDDALLKNYGLLSCFKKDLHKAETYLRVMKCRRFVESSCAF
Regarding B1, the “maximum torsional moment in comparison to the intact contralateral tibia” value in test [1] (at sacrifice, p<0.001 vs control) was 64±22.4%. Besides, the maximum torsional moment in test [1] (distracted tibia at sacrifice, mean±SD, p=0.001 vs placebo) was 19.5±7.8 Nm. Also, the “maximum torsional moment, higher than that of the placebo group” value in test [1] (distraction 2 mm/day for 10 days, consolidation 10 days, at sacrifice, p=0.001) was found to be 131%.

B2: cST: canine somatotropin, given to dogs in the cited study of Buonomo et al. (protein, UniProt P33711 27-216, looked up)
Somatotropin: B1 Somatotropin
In the case of B2, in the test with healing fracture, the “increase of stiffness of the healing fracture as compared to non-treated dogs” value is given as 5 fold and the “increase of strength of the healing fracture as compared to non-treated dogs” value is given as 3 fold.
